Columns and labels:
RcsB wild-type [1] = biological target: T1, RcsB wild-type (Salmonella Typhimurium, UniProt P58663 1-216); assay: EMSA
T1 sequence: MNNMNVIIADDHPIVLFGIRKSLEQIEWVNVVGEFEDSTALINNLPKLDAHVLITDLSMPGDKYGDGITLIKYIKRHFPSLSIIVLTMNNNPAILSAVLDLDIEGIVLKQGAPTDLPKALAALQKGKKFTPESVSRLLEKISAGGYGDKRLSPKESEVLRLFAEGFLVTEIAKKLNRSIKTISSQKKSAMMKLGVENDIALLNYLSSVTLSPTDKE

crystal structure = biological target: the molecule itself; assay: crystal structure
RcsB wild-type [2] = biological target: T1, RcsB wild-type; assay: EMSA; remark: listed apart in the source
RcsB wild-type [3] = biological target: T1, RcsB wild-type; assay: EMSA; remark: listed apart in the source
RcsB wild-type [4] = biological target: T1, RcsB wild-type; assay: crystal structure
RcsB-L108A = biological target: T2, RcsB-L108A (Salmonella Typhimurium, UniProt P58663 1-216, L108A); assay: EMSA
T2 sequence: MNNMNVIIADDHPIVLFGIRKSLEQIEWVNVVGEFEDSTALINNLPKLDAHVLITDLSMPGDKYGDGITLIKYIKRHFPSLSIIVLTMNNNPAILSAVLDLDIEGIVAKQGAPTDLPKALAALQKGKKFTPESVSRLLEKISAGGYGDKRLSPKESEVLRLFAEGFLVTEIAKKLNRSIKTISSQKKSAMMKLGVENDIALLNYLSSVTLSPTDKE

B1: ytfK (dsDNA)
DNA 1: GATGTTTAGATAATTCTGAATAA
DNA 2: TTATTCAGAATTATCTAAACATC
B1: binds (RcsB wild-type [1]).

B2: flgA (dsDNA)
DNA 1: GTTAATAAGAATATTCCCATCAG
DNA 2: CTGATGGGAATATTCTTATTAAC
B2: binds (RcsB wild-type [1]).

B3: RcsB from S. Typhimurium, full-length wild-type, bound to phosphomimetic BeF3- (natural protein, UniProt P58663 1-216, looked up)
chain: MNNMNVIIADDHPIVLFGIRKSLEQIEWVNVVGEFEDSTALINNLPKLDAHVLITDLSMPGDKYGDGITLIKYIKRHFPSLSIIVLTMNNNPAILSAVLDLDIEGIVLKQGAPTDLPKALAALQKGKKFTPESVSRLLEKISAGGYGDKRLSPKESEVLRLFAEGFLVTEIAKKLNRSIKTISSQKKSAMMKLGVENDIALLNYLSSVTLSPTDKE
modifications: phosphomimetic BeF3- bound in the active site (phosphorylatable residue D56)
B3 was tested, and the “stoichiometry N” value (crystal structure) was 2.

B4: P1flhDC second AGA to AGG (dsDNA)
DNA 1: CGAATTAGGAAAAACCTTAGGCG
DNA 2: CGCCTAAGGTTTTTCCTAATTCG
B4: binds (RcsB wild-type [2]).

B5: osmB (dsDNA)
DNA 1: CTCTCTAAGACTTTTCTGACATC
DNA 2: GATGTCAGAAAAGTCTTAGAGAG
B5: binds (RcsB wild-type [1]).

B6: P1flhDC first GGA to AGA (dsDNA)
DNA 1: CGAATTAAGAAAAATCTTAGGCG
DNA 2: CGCCTAAGATTTTTCTTAATTCG
B6: binds (RcsB wild-type [3]).

B7: PrprA (dsDNA)
DNA 1: CCTATTGAGACGAATCTGATCGG
DNA 2: CCGATCAGATTCGTCTCAATAGG
B7: binds (RcsB wild-type [4]).

B8: nlpD (dsDNA)
DNA 1: ACCTTTCGGAATATTCCCATACT
DNA 2: AGTATGGGAATATTCCGAAAGGT
B8: binds (RcsB wild-type [1]).

B9: P1flhDC (dsDNA)
DNA 1: CGAATTAGGAAAAATCTTAGGCG
DNA 2: CGCCTAAGATTTTTCCTAATTCG
B9: no binding (RcsB-L108A).

Reference: PMC7913699 (Nucleic Acids Research, 2021)
